{
  "source": "patent US20150118233A1",
  "about": "(Ablynx, published 2015)",
  "binders": {"B1": {"name": "Nanobody NC23 (VHH)", "VHH": "EVQLVESGGGLVQPGGSLRLSCAASGRTFSSIAMGWFRQAPGKEREFVAAISWSRGRTFYADSVKGRFIISRDDAANTAYLQMNSLKPEDTAVYYCAVDTASWNSGSFIYDWAYDHWGQGTQVTVSS"}, "B2": {"name": "Nanobody 15H8 (VHH)", "VHH": "EVQLVESGGGLVQAGGSLRLSCAASGRSFSNYVLGWFRQAPGKEREFVAAISFRGDSAIGAPSVEGRFTISRDNAKNTGYLQMNSLVPDDTAVYYCGAGTPLNPGAYIYDWSYDYWGRGTQVTVSS"}, "B3": {"name": "Nanobody NC41 (VHH)", "VHH": "EVQLVESGGGLVQAGGSLSISCAASGGSLSNYVLGWFRQAPGKEREFVAAINWRGDITIGPPNVEGRFTISRDNAKNTGYLQMNSLAPDDTAVYYCGAGTPLNPGAYIYDWSYDYWGRGTQVTVSS"}, "B4": {"name": "Nanobody 191D3 (VHH)", "VHH": "EVQLVESGGGLVQAGGSLRLSCEASGRTYSRYGMGWFRQAPGKEREFVAAVSRLSGPRTVYADSVKGRFTISRDNAENTVYLQMNSLKPEDTAVYTCAAELTNRNSGAYYYAWAYDYWGQGTQVTVSS"}, "B5": {"name": "Nanobody 1E4 (VHH)", "VHH": "B4 VHH with Y29F, R31S, S106P, A112T"}, "B6": {"name": "Nanobody 7B2 (VHH)", "VHH": "EVQLVESGGGLVQAGDSLRLSCAASGRTFSSYAMGWFRQAPGKEREFVAAISWSDGSTYYADSVKGRFTISRDNAKNTVYLQMNSLKPEDTAVYYCAADLTSTNPGSYIYIWAYDYWGQGTQVTVSS"}, "B7": {"name": "Nanobody 15B3 (VHH)", "VHH": "EVQLVESGGGLVQPGGSLRLSCAASGLTLDYYALGWFRQAPGKEREGVSCISSSDHSTTYTDSVKGRFTISWDNAKNTLYLQMNSLKPGDTAVYYCAADPALGCYSGSYYPRYDYWGQGTQVTVSS"}, "B8": {"name": "Nanobody 191E4 (VHH)", "VHH": "EVQLVESGGGLVQAGGSLRLSCAASGPTFSADTMGWFRQAPGKEREFVATIPWSGGIAYYSDSVKGRFTMSRDNAKNTVDLQMNSLKPEDTALYYCAGSSRIYIYSDSLSERSYDYWGQGTQVTVSS"}, "B9": {"name": "NC41v17 (VHH)", "VHH": "EVQLLESGGGLVQPGGSLRLSCAASGGSLSNYVLGWFRQAPGKGREFVAAINWRGDITIGPPNVEGRFTISRDNSKNTLYLQMNSLRPEDTAVYYCGAGTPLNPGAYIYDWSYDYWGQGTLVTVSS"}, "B10": {"name": "NC41v06 (VHH)", "VHH": "B9 VHH with G55D, S75A"}},
  "note": "Numbering of substitutions follows the chain as printed.",
  "data": [
    {"molecular_target": "F protein of hRSV strain A-2 (hRSV strain A-2)", "test": "cell-based or functional assay", "units": {"RSV neutralization IC50": "nM"}, "values": [
      {"binder": "B1", "RSV neutralization IC50": 109},
      {"binder": "B2", "RSV neutralization IC50": 218},
      {"binder": "B3", "RSV neutralization IC50": 26},
      {"binder": "B4", "RSV neutralization IC50": 227},
      {"binder": "B5", "RSV neutralization IC50": 298},
      {"binder": "B6", "RSV neutralization IC50": 177}
    ]},
    {"molecular_target": "F protein of hRSV strain B-1 (hRSV strain B-1)", "test": "cell-based or functional assay", "units": {"RSV neutralization IC50": "nM"}, "values": [
      {"binder": "B2", "RSV neutralization IC50": 2340},
      {"binder": "B3", "RSV neutralization IC50": 4000},
      {"binder": "B7", "RSV neutralization IC50": 1270},
      {"binder": "B8", "RSV neutralization IC50": 4330},
      {"binder": "B6", "RSV neutralization IC50": 2690}
    ]},
    {"molecular_target": "F protein of hRSV strain Long (hRSV strain Long)", "test": "cell-based or functional assay", "units": {"Neutralization IC50 (first assay)": "nM", "Neutralization IC50 (second assay)": "nM"}, "values": [
      {"binder": "B9", "Neutralization IC50 (first assay)": 249, "Neutralization IC50 (second assay)": 149}
    ]},
    {"molecular_target": "F protein of hRSV strain B-1 (hRSV strain B-1)", "test": "cell-based or functional assay", "remark": "another data set of the same source", "units": {"Neutralization IC50 (first assay)": "nM", "Neutralization IC50 (second assay)": "nM"}, "values": [
      {"binder": "B3", "Neutralization IC50 (first assay)": 4710, "Neutralization IC50 (second assay)": 3290},
      {"binder": "B10", "Neutralization IC50 (first assay)": 806},
      {"binder": "B9", "Neutralization IC50 (first assay)": 677, "Neutralization IC50 (second assay)": 346}
    ]}
  ]
}
